Test results published in patent US20200131224A1, “Methods for Synthesis of Radionuclide Complex” (Advanced Accelerator Applications (Italy) S.R.L., priority 2018, published 2020).

Test: Radiochemical purity (RCP) of the Drug Substance 72 hours from end of synthesis
Assay type: physicochemical
Settings: radiochemical purity 72 hours from end of synthesis; reaction time 5 min; reactor temperature 80 or 100 °C by batch
Protocol: The reaction temperature has been tested between 80° C. and 100° C. for labeling times of 5 minutes.

Row | SMILES | RCP (%) t72 h
1 | C[C@@H](O)[C@H](NC(=O)[C@@H]1CSSC[C@H](NC(=O)[C@@H](Cc2ccccc2)NC(=O)CN2CCN(CC(=O)[O-])CCN(CC(=O)[O-])CCN(CC(=O)[O-])CC2)C(=O)N[C@@H](Cc2ccc(O)cc2)C(=O)N[C@H](Cc2c[nH]c3ccccc23)C(=O)N[C@@H](CCCCN)C(=O)N[C@@H]([C@@H](C)O)C(=O)N1)C(=O)O.[177Lu+3] [LT141013B-03, ^177Lu-DOTA0-Tyr^3-Octreotate] | 95.9%
2 | C[C@@H](O)[C@H](NC(=O)[C@@H]1CSSC[C@H](NC(=O)[C@@H](Cc2ccccc2)NC(=O)CN2CCN(CC(=O)[O-])CCN(CC(=O)[O-])CCN(CC(=O)[O-])CC2)C(=O)N[C@@H](Cc2ccc(O)cc2)C(=O)N[C@H](Cc2c[nH]c3ccccc23)C(=O)N[C@@H](CCCCN)C(=O)N[C@@H]([C@@H](C)O)C(=O)N1)C(=O)O.[177Lu+3] [LT141013C-03, ^177Lu-DOTA0-Tyr^3-Octreotate] | 95.8%
